The record followed here is US20230374153A1 (PARADIGM IMMUNOTERAPEUTICS, published 2023).

In assay [1] the target is T1, FcRn (neonatal Fc receptor) (UniProt P55899 24-297; P61769 21-119).
T1 construct: also called FCGRT; purified FcRn receptor
Briefly: SPR (Biacore, ACRO Biosystems), pH 6.0. A general note: SPR reads the build-up and loss of mass on a sensor chip optically.

The target of assay [2] is T1, FcRn (neonatal Fc receptor).

Residue numbers refer to the chain shown, from its start.

T1 sequence (P55899 24-297 limits assumed, chain 1 of 2): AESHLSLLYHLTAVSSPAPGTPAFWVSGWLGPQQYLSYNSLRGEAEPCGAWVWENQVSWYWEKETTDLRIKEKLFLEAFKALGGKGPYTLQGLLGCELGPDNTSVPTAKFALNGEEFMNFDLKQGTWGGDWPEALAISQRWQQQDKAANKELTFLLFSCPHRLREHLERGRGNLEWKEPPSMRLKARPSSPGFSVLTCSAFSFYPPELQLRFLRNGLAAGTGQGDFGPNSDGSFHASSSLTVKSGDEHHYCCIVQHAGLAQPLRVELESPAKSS
T1 sequence (P61769 21-119 limits assumed, chain 2 of 2): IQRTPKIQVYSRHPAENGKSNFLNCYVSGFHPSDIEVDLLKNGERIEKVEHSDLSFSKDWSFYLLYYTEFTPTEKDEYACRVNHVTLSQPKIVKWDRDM

B1: ACE2 LVE IgG Fc STR chimeric antibody (LiVE) (Fc fusion)
chain: QSTIEEQAKLFLDKFNVEAEDLFYQSSLASWNYNTNITEENVQNMNNAGDKWSAFLKEQSTLAQMYPLQEIQELTVKLQLQALQQNGSSVLSEDKSKRLNTILNTMSTIYSTGKVCNPDNPQECLLLEPGLNEIMANSLDYNERLWAWESWRSEVGKQLRPLYEEYVVLKNEMARANHYEDYGDYWRGDYEVNGVDGYDYSRGQLIEDVEHTFEEIKPLYEHLHAYVRAKLMNAYPSYISPIGCLPAHLLGDMWGRFWTNLYSLTVPFGQKPNIDVTDAMVDQAWDAQRIFKEAEKFFVSVGLPNMTQGFWENSMLTDPGNVQKAVCHPTAWDLGKGDFRILMCTKVTMDDFLTAHHEMGHIQYDMAYAAQPFLLRNGANEGFHEAVGEIMSLSAATPKHLKSIGLLSPDFQEDNETEINFLLKQALTIVGTLPFTYMLEKWRWMVFKGEIPKDQWMKKWWEMKREIVGVVEPVPHDETYCDPASLFHVSNDYSFIRYYTRTLYQFQFQEALCQAAKHEGPLHKCDISNSTEAGQKLFNMLRLGKSEPWTLALENVVGAKNMNVRPLLNYFEPLFTWLKDQNKNSFVGWSTDWSPYADQSIKVRISLKSALGDKAYEWNDNEMYLFRSSVAYAMRQYFLKVKNQMILFGEEDVRVANLKPRISFNFFVTAPKNVSDIIPRTEVEKAIRMSRSRINDAFRLNDNSLEFLGIQPTLGPPNQPPVSGGGGSGGGGSDKTHTCPPCPAPESTRGPSVFLFPPKPKDTLMISRTPEVTCVVVDVSHEDPEVKFNWYVDGVEVHNAKTKPREEQYNSTYRVVSVLTVLHQDWLNGKEYKCKVSNKALPAPIEKTISKAKGQPREPQVYTLPPSRDELTKNQVSLTCLVKGFYPSDIAVEWESNGQPENNYKTTPPVLDSDGSFFLYSKLTVDKSRWQQGNVFSCSVMHEALHNHYTQKSLSLSPGK
As for B1, the affinity in assay [1], expressed as Kd, was 517 nM.

B2: ACE2 LVE IgG Fc STR YTE chimeric antibody (LiVE Longer) (Fc fusion)
chain: B1 chain with M765Y, S767T, T769E
As for B2, the dissociation constant (Kd) (in general, the concentration at which binding is half-saturated) in assay [1] is 26.7 nM. For the same molecule, in assay [2], the dissociation rate constant (koff) (in general, the first-order rate constant of dissociation) worked out at 0.00412 s⁻¹ and the kon (commonly the second-order rate constant of association) is 155000 M⁻¹ s⁻¹.
